From paper PMC5571166, “Mapping the key residues of SufB and SufD essential for biosynthesis of iron-sulfur clusters” (Scientific Reports, 2017)

Columns and labels:
Test in all cases: SEC; SufBCD complexes co-expressed in E. coli and co-purified on Phenyl FF, Q XL and Sephacryl S-200; eluted from gel filtration at about 160 kDa; subunit composition checked by SDS-PAGE of the purified sample
Conditions in all cases: both partners purified
SufB^C254A = biological target: T1, SufB^C254A (Escherichia coli, UniProt P77522 1-495, SufB^C254A)
T1 construct: SufB of the Escherichia coli sufABCDSE operon; source: pBBR-sufAB carrying the mutation, in bacterial extract
T1 sequence: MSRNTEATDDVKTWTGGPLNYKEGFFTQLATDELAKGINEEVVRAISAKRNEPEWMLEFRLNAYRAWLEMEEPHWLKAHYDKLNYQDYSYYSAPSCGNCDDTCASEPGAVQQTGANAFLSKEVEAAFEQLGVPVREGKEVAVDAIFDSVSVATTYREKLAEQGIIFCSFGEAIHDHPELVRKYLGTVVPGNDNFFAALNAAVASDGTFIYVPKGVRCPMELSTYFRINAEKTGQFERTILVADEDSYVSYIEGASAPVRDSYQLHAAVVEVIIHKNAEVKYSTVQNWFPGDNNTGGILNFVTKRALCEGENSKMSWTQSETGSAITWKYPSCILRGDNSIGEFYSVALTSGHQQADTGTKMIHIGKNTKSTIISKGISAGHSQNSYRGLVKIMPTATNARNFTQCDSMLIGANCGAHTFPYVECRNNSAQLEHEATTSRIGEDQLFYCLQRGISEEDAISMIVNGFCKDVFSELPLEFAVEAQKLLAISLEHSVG

SufB^W287A = biological target: T2, SufB^W287A (Escherichia coli, UniProt P77522 1-495, SufB^W287A)
T2 construct: SufB of the Escherichia coli sufABCDSE operon; source: pBBR-sufAB carrying the mutation, in bacterial extract
T2 sequence: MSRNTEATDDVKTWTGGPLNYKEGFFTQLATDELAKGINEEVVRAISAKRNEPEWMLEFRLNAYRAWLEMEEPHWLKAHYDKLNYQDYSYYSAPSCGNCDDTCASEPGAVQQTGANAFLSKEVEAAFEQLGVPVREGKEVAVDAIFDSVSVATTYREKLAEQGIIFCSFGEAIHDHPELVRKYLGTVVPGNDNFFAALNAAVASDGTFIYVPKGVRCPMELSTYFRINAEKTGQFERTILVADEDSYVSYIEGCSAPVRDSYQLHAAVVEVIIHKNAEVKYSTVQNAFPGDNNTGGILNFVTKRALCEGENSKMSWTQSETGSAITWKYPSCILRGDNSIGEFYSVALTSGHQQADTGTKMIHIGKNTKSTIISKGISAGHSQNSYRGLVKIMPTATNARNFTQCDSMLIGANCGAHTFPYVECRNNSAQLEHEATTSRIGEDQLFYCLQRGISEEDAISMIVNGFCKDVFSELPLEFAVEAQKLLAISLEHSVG

SufB^Q285A = biological target: T3, SufB^Q285A (Escherichia coli, UniProt P77522 1-495, SufB^Q285A)
T3 construct: SufB of the Escherichia coli sufABCDSE operon; source: pBBR-sufAB carrying the mutation, in bacterial extract
T3 sequence: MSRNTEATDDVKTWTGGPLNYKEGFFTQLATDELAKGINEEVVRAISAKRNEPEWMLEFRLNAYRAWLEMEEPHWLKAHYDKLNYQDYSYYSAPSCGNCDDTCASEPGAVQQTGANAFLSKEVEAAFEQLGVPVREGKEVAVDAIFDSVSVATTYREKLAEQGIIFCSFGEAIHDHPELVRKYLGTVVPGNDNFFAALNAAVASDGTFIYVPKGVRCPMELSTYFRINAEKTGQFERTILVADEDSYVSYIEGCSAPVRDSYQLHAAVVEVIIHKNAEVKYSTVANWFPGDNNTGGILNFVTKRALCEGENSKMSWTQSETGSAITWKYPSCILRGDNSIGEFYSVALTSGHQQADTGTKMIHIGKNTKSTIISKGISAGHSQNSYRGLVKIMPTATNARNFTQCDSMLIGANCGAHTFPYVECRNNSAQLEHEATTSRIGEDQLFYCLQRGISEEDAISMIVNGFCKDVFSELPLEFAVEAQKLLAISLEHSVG

SufB^R226A = biological target: T4, SufB^R226A (Escherichia coli, UniProt P77522 1-495, SufB^R226A)
T4 construct: SufB of the Escherichia coli sufABCDSE operon
T4 sequence: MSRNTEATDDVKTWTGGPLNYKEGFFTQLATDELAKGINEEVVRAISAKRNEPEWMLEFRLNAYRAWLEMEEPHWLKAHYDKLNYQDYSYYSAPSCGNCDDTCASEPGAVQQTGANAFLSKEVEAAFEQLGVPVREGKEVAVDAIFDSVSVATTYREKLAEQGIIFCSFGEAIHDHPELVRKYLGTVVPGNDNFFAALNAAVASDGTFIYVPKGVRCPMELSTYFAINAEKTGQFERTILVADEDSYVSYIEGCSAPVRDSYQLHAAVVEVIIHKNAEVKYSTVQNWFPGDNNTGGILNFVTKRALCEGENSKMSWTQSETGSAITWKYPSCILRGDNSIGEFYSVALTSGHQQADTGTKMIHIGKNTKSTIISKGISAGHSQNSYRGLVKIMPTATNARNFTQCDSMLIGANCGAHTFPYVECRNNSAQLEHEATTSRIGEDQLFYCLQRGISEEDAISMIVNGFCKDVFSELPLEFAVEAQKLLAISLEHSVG

Measured: binding result

B1: SufC (natural protein, Escherichia coli)
chain: MLSIKDLHVSVEDKAILRGLSLDVHPGEVHAIMGPNGSGKSTLSATLAGREDYEVTGGTVEFKGKDLLALSPEDRAGEGIFMAFQYPVEIPGVSNQFFLQTALNAVRSYRGQETLDRFDFQDLMEEKIALLKMPEDLLTRSVNVGFSGGEKKRNDILQMAVLEPELCILDESDSGLDIDALKVVADGVNSLRDGKRSFIIVTHYQRILDYIKPDYVHVLYQGRIVKSGDFTLVKQLEEQGYGWLTEQQ
notes: SufC of the Escherichia coli sufABCDSE operon; also called SufC subunit of the SufBCD complex
binds: SufB^C254A | SufB^W287A | SufB^Q285A | SufB^R226A

B2: SufD (natural protein, Escherichia coli)
chain: MAGLPNSSNALQQWHHLFEAEGTKRSPQAQQHLQQLLRTGLPTRKHENWKYTPLEGLINSQFVSIAGEISPQQRDALALTLDSVRLVFVDGRYVPALSDATEGSGYEVSINDDRQGLPDAIQAEVFLHLTESLAQSVTHIAVKRGQRPAKPLLLMHITQGVAGEEVNTAHYRHHLDLAEGAEATVIEHFVSLNDARHFTGARFTINVAANAHLQHIKLAFENPLSHHFAHNDLLLAEDATAFSHSFLLGGAVLRHNTSTQLNGENSTLRINSLAMPVKNEVCDTRTWLEHNKGFCNSRQLHKTIVSDKGRAVFNGLINVAQHAIKTDGQMTNNNLLMGKLAEVDTKPQLEIYADDVKCSHGATVGRIDDEQIFYLRSRGINQQDAQQMIIYAFAAELTEALRDEGLKQQVLARIGQRLPGGAR
notes: SufD of the Escherichia coli sufABCDSE operon; One SufD per SufBCD complex (1:2:1); also called SufD subunit of the SufBCD complex
binds: SufB^C254A | SufB^W287A | SufB^Q285A | SufB^R226A
